The supplement of paper PMC10567573

B1: PLK2 (parent)
chain: YAELGQCSVFPATDAPEQFISQVT

Variants of: B1
Assay: protein stability index of a GFP-peptide fusion (GPS, HEK-293T) (PSI 1-6); higher = more stable
Conditions: c terminus: a fixed tail appended
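Further: lentivirally expressed fusions sorted by FACS into six bins by GFP to DsRed ratio, PSI derived from sequencing read proportions per bin multiplied by bin number.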

Protein stability index, by site and new letter:
P11: W 2.82, Q 1.91, S 2.56, H 2.32, R 2.21, E 1.33, T 3.65, I 3.28, M 2.62, G 3.1, L 2.03
A2: W 2.5, P 3.42, D 4.09, S 3.15, E 4.46
A15: K 2.29, V 2.22, Q 2.17, H 2.58, R 2.21, C 2
G5: N 2.47, T 2.28, P 2.46, C 2.24, S 2.14, H 2.52, K 2.02, R 2.02, I 1.72, Q 2.53, L 1.57
I20: F 2.54, A 2.13, Q 2.31, R 2.53, N 2.65, P 2.24, Y 1.7, H 2.96, W 1.27
D14: L 1.62, Y 2.56, S 2.09, H 1.97, A 1.46, Q 1.91, C 1.86, G 2
T13: I 1.81, A 2.49, F 1.33, D 2.8, Q 2.57, Y 1.62, G 2.32, E 3.45
P16: W 2.84, G 1.89, A 1.8, C 2.04, I 1.74, T 2.05, K 1.87, E 2.66, Q 2.44
F10: M 3.06, W 2.96, Q 3.46, N 3.43, D 4.2, T 3.47
E17: P 2.12, G 2.15, M 1.6, Q 2.9, N 1.95, K 2.32
C7: V 2.32, Y 2.12, A 3.2, K 2.23, P 3.45, T 2.87, D 3.04
S8: W 3.17, G 1.93, N 2.57, R 1.9, F 2.53, H 1.83
F19: R 3.85, A 2.19, T 2.7, N 2.92, C 1.96, S 2.01, G 2.38
S21: I 2.64, H 1.8, L 2.59, F 1.82, Q 1.89, C 1.53, N 2.14, G 2.26
T24: L 2.21, R 2.14, H 2.57, I 2.48
Q22: S 2.06, V 2.81, W 2.09, I 1.52, F 1.73, L 1.7
E3: M 1.97, C 2.21, W 1.66, Q 2.02, S 1.82, I 1.63, T 1.98
L4: N 3.09, M 2.11, Y 2.06, K 2.62, Q 3.62
Q18: K 2.08, N 2.73, V 2.49, L 2, H 2.19, R 1.88, T 2.13
V9: G 2.27, E 3.64, D 4.25, W 2.5, M 1.98
Y1: K 4.16, S 4.09, L 3.54, N 4.46, W 2.84, F 2.24, H 4, C 3.13
Q6: P 2.26, M 1.54, A 2.18, V 1.94, S 2.42, N 2.28, F 2.14
A12: T 2.22, M 1.72, L 1.66, F 2.18, D 2.81, P 2.47
V23: I 1.74, H 1.98, F 1.89, R 2.54, M 2.29
